Where two headings read alike, the source gives them in different places.

Assay [1] concerns the target T1, CD25 (R&D systems cat. #223-2A/CF) (UniProt P01589 22-213, limits assumed).
T1 construct: Bought soluble protein
T1 sequence (looked up): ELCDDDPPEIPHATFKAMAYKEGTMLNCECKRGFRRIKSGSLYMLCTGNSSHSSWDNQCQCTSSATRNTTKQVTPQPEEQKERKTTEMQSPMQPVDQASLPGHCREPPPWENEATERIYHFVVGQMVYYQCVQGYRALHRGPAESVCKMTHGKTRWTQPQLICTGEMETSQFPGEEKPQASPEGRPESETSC
The assay can be described thus: SPR (Biacore), antibody captured on Protein A, CD25 injected; separate runs.
Procedure: (§1) Binding was measured by injection of two-fold serial dilutions of CD25 (0 nM to 50 nM; R&D systems) in buffer at 25° C. with a flow rate of 25-30 μL/min for 2 min followed by a dissociation phase of 4-5 min. Association rates (kₒₙ) and dissociation rates (koff) were calculated using a simple one-to-one Langmuir binding model (BIAcore Evaluation Software version 3.2). The equilibrium dissociation constant (Kd) was calculated as the ratio of koff/kₒₙ).

Assay [2] addresses T1, CD25 (R&D systems cat. #223-2A/CF). Put plainly: Biacore (SPR); antibody captured on Protein A, CD25 injected.
Procedure: as §1
Assay [3] shares this target. The assay is described as above. The source holds these as a separate data set.
Procedure: as §1
Assay [4] has the same target. The assay can be described thus: Biacore blocking assay; antibody injected over CD25 coupled to a CM5 chip, then 100 nM rh-IL2; blocked ligand IL-2.
Procedure: The chip was regenerated after each cycle by injection of glycine buffer @ pH 1.5 for 30 sec at 10 μL/min.
The target is the same in assay [5]. The assay can be described thus: SPR (Biacore).
Procedure: as §1
The target of assay [6] is T2, TNFα (UniProt P01375 77-233). The assay can be described thus: SPR (Biacore), TNFα on CM5 chip, Fab injected.
T2 sequence (P01375 77-233 limits assumed): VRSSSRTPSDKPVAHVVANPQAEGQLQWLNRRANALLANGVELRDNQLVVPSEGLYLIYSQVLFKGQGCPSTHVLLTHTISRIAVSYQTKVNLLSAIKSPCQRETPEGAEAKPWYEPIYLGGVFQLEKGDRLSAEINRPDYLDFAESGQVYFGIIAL
Procedure: (§2) For kinetic analysis of anti-TNFα antibodies, TNFα was coupled to an activated CM5 biosensor chip using standard NHS-EDC chemistry by injecting 200 nM TNFα at a flow rate of 2 μL/min for 10 min. […] For subsequent cycles, the chip was regenerated using pH4.0 acetate buffer. Association rates (kₒₙ) and dissociation rates (koff) were calculated using a simple one-to-one Langmuir binding model (BIAcore Evaluation Software version 3.2). The equilibrium dissociation constant (Kd) was calculated as the ratio of koff/kₒₙ.
Assay [7] addresses T2, TNFα. Put plainly: SPR (Biacore), TNFα on CM5 chip, Fab injected; mean of two runs ± SD.
Procedure: as §2
Assay [8] has as its target T2, TNFα. The assay can be described thus: Biacore (SPR); Fab injected over immobilized TNFα.
Procedure: as §2
Assay [9] concerns the target T3, VEGF (UniProt P15692-4 27-191, limits assumed). The assay can be described thus: SPR (Biacore), VEGF on CM5 chip, Fab injected.
Procedure: (§3) For kinetic analysis of anti-VEGF antibodies, VEGF was coupled to an activated CM5 biosensor chip using standard NHS-EDC chemistry by injecting 200 nM VEGF at a flow rate of 2 μL/min for 10 min. […] Association rates (kₒₙ) and dissociation rates (koff) were calculated using a simple one-to-one Langmuir binding model (BIAcore Evaluation Software version 3.2). The equilibrium dissociation constant (Kd) was calculated as the ratio of koff/kₒₙ.
Assay [10] concerns the target T3, VEGF. The assay can be described thus: Biacore (SPR); Fab injected over immobilized VEGF.
Procedure: as §3
The target in assay [11] is T3, VEGF. Put plainly: Biacore (SPR); Fab injected over immobilized VEGF. The source holds these as a separate data set.
Procedure: as §3
The target of assay [12] is T1, CD25 (R&D systems cat. #223-2A/CF). Put plainly: SPR (Biacore), single variant in H1L1 background.
Procedure: as §1

T3 sequence (P15692 other isoform, or with tags, fused parts or gaps limits assumed): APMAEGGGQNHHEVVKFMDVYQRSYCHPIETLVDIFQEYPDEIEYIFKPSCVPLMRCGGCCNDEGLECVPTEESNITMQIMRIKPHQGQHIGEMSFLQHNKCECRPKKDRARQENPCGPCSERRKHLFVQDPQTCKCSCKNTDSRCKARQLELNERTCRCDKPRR

B1: anti-CD25 H0L0 (antibody, V domains shown)
VH: QVQLQQSGAELAKPGASVKMSCKASGYTFTSYRMHWVKQRPGQGLEWIGYINPSTGYTEYNQKFKDKATLTADKSSSTAYMQLSSLTFEDSAVYYCARGGGVFDYWGQGTTLTVSS
VL: QIVLTQSPAIMSASPGEKVTITCSASSSISYMHWFQQKPGTSPKLWIYTTSNLASGVPARFSGSGSGTSYSLTISRMEAEDAATYYCHQRSTYPLTFGSGTKLELK
notes: Chimeric form of the anti-TAC antibody, in IgG1 format; also called chimeric anti-CD25 H0L0; anti-TAC H0L0
On to B1, for which the Kd is 0.09 to 0.3 nM in assay [1], 0.09 nM in assay [2] and 0.26 nM in assay [3]. The results for the koff in assay [2] and in assay [3] were 0.00013 s⁻¹ and 0.00018 s⁻¹, respectively. Also, the kon is 1.6e+06 M⁻¹ s⁻¹ in assay [2] and 670000 M⁻¹ s⁻¹ in assay [3]. The “IC50 (read off the curve)” value in assay [4] was around 40 nM.

B2: anti-CD25 H1.12L1.20 (antibody, V domains shown)
VH: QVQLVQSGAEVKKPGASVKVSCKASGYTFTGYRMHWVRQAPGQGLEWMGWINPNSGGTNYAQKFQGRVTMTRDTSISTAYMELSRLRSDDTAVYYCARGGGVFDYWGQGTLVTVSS
VL: EIVLTQSPATLSLSPGERATLSCRASQSVSYLHWYQQKPGQAPRLLIYTTSNRATGIPARFSGSGSGTDFTLTISSLEPEDFAVYYCHQRSTYPLTFGSGTKLEIK
notes: IgG1 format; It has twenty-two mutations against anti-CD25 H1L1; copies: 2 + 2
As to B2, in assay [5], the “fold tighter binding than anti-CD25 H0L0” value is around 1.5 fold. In assay [3], this molecule gave a Kd of 0.17 nM, a koff of 0.00013 s⁻¹ and an on-rate (kon) of 750000 M⁻¹ s⁻¹. Besides, the “IC50 (read off the curve)” value in assay [4] was around 40 nM.

B3: Anti-TNFα H1.67L1.33 (Fab, V domains shown)
VH: EVQLVESGGGLVQPGGSLKLSCAASGFTFSNHWMNWVRQASGKGLEWVGEIRSKAISYATHYAASVKGRFTISRDDSKNTAYLQMNSLKTEDTAVYYCSRNYYGSTYDYWGQGTLVTVSS
VL: EIVLTQSPDFQSVTPKEKVTITCRASQFIGSSLHWYQQKPDQSPKLLIKYASESFSGVPSRFSGSGSGTDFTLTINSLEAEDAATYYCQQSHSWPFTFGSGTKLEIK
notes: Fab format
Take B3: the “fold difference in affinity against the chimeric antibody anti-TNFα H0L0” value with TNFα [6] is at most 3 fold. For the same molecule, in the assay with TNFα [7], the dissociation constant (Kd) was 3.8 nM, the koff came to 0.000776 s⁻¹ and the on-rate (kon) came to 200000 M⁻¹ s⁻¹.

B4: Anti-TNFα H1.103L1.33 (Fab, V domains shown)
VH: EVQLVESGGGLVQPGGSLKLSCAASGFIFSNHWMNWVRQASGKGLEWVGEIRSKANNYATHYAASVKGRFTISRDDSKNTAYLQMNSLKTEDTAVYYCSRNYYGSTYDYWGQGTLVTVSS
VL: EIVLTQSPDFQSVTPKEKVTITCRASQFIGSSLHWYQQKPDQSPKLLIKYASESFSGVPSRFSGSGSGTDFTLTINSLEAEDAATYYCQQSHSWPFTFGSGTKLEIK
notes: Fab format; It has thirteen more mutations than anti-TNFα H1L1; also called anti-TNF H1.103L1.33
Consider B4, for which, in the assay with TNFα [6], the “fold difference in affinity against the chimeric antibody anti-TNFα H0L0” value was at most 3 fold. Besides, in the assay with TNFα [8], the “Fold affinity change relative to H0L0” value was -1.3 fold. In the assay with TNFα [7], this molecule displayed a Kd of 3.1 nM, a koff of 0.00092 s⁻¹ and an on-rate (kon) of 292000 M⁻¹ s⁻¹.

B5: anti-VEGF H1.33L1.51 (Fab, V domains shown)
VH: QVQLVQSGSELKKPGASVKVSCKASGYTFTNYGMNWVRQAPGQGLEWMGWINTYTGNPTYAQGFTGRFVFSLDTSVSTAYLQISSLKAEDTAVYYCAKYPHYYGSSHWYFDVWGAGTLVTVSS
VL: DIQMTQSPSSLSASVGDRVTITCQASQDISNYLNWYQQKPGKAPKVLIYFTSSLHSGVPSRFSGSGSGTDYTLTISSLQPEDFATYYCQQYDNLPWTFGGGTKLEIK
notes: Fab format, purified by Ni-NTA chromatography
Consider B5, for which, in the assay with VEGF [9], the “fold difference in affinity against the chimeric antibody anti-VEGF H0L0” value was at most 3 fold. Also, in the assay with VEGF [10], the “Fold change in Kd vs. H0L0” value was -2.5 fold, the dissociation constant (Kd) turned out to be 3.5 nM, the off-rate (koff) was found to be 0.00029 s⁻¹ and the kon is 83000 M⁻¹ s⁻¹.

B6: anti-VEGF H1.33L1.55 (Fab, V domains shown)
VH: QVQLVQSGSELKKPGASVKVSCKASGYTFTNYGMNWVRQAPGQGLEWMGWINTYTGNPTYAQGFTGRFVFSLDTSVSTAYLQISSLKAEDTAVYYCAKYPHYYGSSHWYFDVWGAGTLVTVSS
VL: DIQMTQSPSSLSASVGDRVTITCQASQDISNYLNWYQQKPGKAPKVLIYFASNLETGVPSRFSGSGSGTDYTLTISSLQPEDFATYYCQQYDNLPWTFGGGTKLEIK
notes: as for B5
For the molecule B6, in the assay with VEGF [9], the “fold difference in affinity against the chimeric antibody anti-VEGF H0L0” value was at most 3 fold. Moreover, in the assay with VEGF [10], the “Fold change in Kd vs. H0L0” value is -2.7 fold, the dissociation constant (Kd) stood at 3.8 nM, the koff came out at 0.00028 s⁻¹ and the on-rate constant (kon) was found to be 80000 M⁻¹ s⁻¹. Also, the “Fold affinity change relative to H0L0” value in the assay with VEGF [11] was -2.7 fold.

B7: anti-CD25 H1L1 single variant VH I69M (antibody, IgG1, V domains shown)
VH: QVQLVQSGAEVKKPGASVKVSCKASGYTFTSYRMHWVRQAPGQGLEWMGYINPSTGYTEYNQKFQGRVTMTADKSISTAYMELSRLRSDDTAVYYCARGGGVFDYWGQGTLVTVSS
VL: QIVLTQSPATLSLSPGERATLSCRASSSISYMHWFQQKPGQSPQLLIYTTSNLASGVPARFSGSGSGTDYTLTISSLQPEDFAVYYCHQRSTYPLTFGSGTKLEIK
notes: IgG1 format
Consider B7, for which the “fold increase in affinity against anti-CD25 H1L1” value in assay [12] came to 2.4 fold. In assay [2], binding was characterised by a dissociation constant (Kd) of 0.13 nM, the koff amounted to 0.00026 s⁻¹ and the kon is 2e+06 M⁻¹ s⁻¹.

B8: anti-CD25 H1.23L1.43 (antibody, IgG1, V domains shown)
VH: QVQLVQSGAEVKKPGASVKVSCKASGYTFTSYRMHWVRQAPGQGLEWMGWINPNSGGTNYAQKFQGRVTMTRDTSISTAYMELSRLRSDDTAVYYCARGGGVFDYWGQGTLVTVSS
VL: EIVLTQSPATLSLSPGERATLSCRASQSVSYLHWYQQKPGQAPRLLIYTTSNRATGIPARFSGSGSGTDYTLTISSLQPEDFAVYYCHQRSTYPLTFGSGTKLEIK
notes: IgG1 format
Turning to B8, in assay [3], the “Fold change in Kd vs. H0L0” value amounted to 1.6 fold; the affinity, expressed as Kd, was 0.16 nM; the dissociation rate constant (koff) turned out to be 0.00012 s⁻¹; the kon stood at 730000 M⁻¹ s⁻¹. For the same molecule, the “IC50 (read off the curve)” value in assay [4] is around 40 nM.
